Measurements published in patent US20150284431A1 (H LEE MOFFITT CANCER CENTER AND RESEARCH INSTITUTE, published 2015).
Square brackets hold non-standard residues; d marks the D form. Primed or numbered codes have the meaning given here. Side chains are listed from the residue outwards. * marks the point of attachment. Butanoyl(4-Ph) = O=C(CCCc1ccccc1)*; IR800CW″ = IRDye800CW maleimide; Mpa = O=C(O)CCS

Molecular target: MC5R expressed in the kidneys (of the xenograft-bearing mice)
Experiment: cell-based or functional assay

Sequence of MC5R expressed in the kidneys (of the xenograft-bearing mice) (P41149 whole entry): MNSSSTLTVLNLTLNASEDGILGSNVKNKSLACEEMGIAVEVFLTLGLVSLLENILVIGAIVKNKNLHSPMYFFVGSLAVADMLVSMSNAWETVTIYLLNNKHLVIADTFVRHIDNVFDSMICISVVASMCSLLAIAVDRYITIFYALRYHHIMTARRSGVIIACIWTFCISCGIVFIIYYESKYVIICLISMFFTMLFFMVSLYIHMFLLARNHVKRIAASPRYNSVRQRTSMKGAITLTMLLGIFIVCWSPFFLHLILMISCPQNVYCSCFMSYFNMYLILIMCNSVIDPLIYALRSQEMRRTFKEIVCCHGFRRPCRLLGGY

B1: 4-phenylbutyryl-His-DPhe-Arg-Trp-Gly-Lys(Mpr-IR800CW)-NH2 (peptide)
peptide: {Butanoyl(4-Ph)}-H[dF]RWGK([Mpa-IR800CW″])-NH2
  fold decrease in renal uptake of MC1RL-800 at 2 hr, with co-injection of 1 nmol/kg MC4R/5R compound (SEQ ID NO:10), compared to control animals: 1.56 fold
